Data: article PMC6642148

Molecular target: RAS-binding domain (RBD) of RAF1, RAF1-RBD (52–131) (Homo sapiens) (UniProt P04049)
Experiment: ITC; GMPPNP-bound KRAS
Details: domain or fragment

- Kd: 217 nM
Substance: KRAS (2–169), GMPPNP-bound (from UniProt P01116-2 2-169)
